Data: US20100310591A1 (published 2010)
Non-standard residues stand in square brackets, D forms with d. Ava = NCCCCC(=O)O

Each binder was assayed against murine class II MHC allele E^k on CH27 B cell lymphoma antigen presenting cells (murine) (assay: cell-based or functional assay).

Row | T cell proliferative response (HT-2 [3H]TdR uptake) at 0.01 nM | T cell proliferative response (HT-2 [3H]TdR uptake) at 0.05 nM | T cell proliferative response (HT-2 [3H]TdR uptake) at 0.18 nM | T cell proliferative response (HT-2 [3H]TdR uptake) at 0.73 nM | T cell proliferative response (HT-2 [3H]TdR uptake) at 3 nM | T cell proliferative response (HT-2 [3H]TdR uptake) at 12 nM | T cell proliferative response (HT-2 [3H]TdR uptake) at 47 nM | T cell proliferative response (HT-2 [3H]TdR uptake) at 188 nM | T cell proliferative response (HT-2 [3H]TdR uptake) at 750 nM | T cell proliferative response (HT-2 [3H]TdR uptake) at 3000 nM | Binder
1 | 2.5 thousands of cpm | 5.8 thousands of cpm | 9.1 thousands of cpm | 19.2 thousands of cpm | 19 thousands of cpm | 23.1 thousands of cpm | 19.5 thousands of cpm | 20.8 thousands of cpm | 23.3 thousands of cpm | 25.2 thousands of cpm | Ac-LRMKLPKSIAYLKQATAK-NH2 [Hybrid 4, Ac-LRMKLPKSIAYLKQATAK-NH2]
2 | 3.4 thousands of cpm | 19.8 thousands of cpm | 31.2 thousands of cpm | 38.8 thousands of cpm | 30.1 thousands of cpm | 21.9 thousands of cpm | 20.8 thousands of cpm | 27.2 thousands of cpm | 23.9 thousands of cpm | 25.1 thousands of cpm | Ac-LRMK[Ava]IAYLKQATAK-NH2 (SMILES CC[C@H](C)[C@H](NC(=O)CCCCNC(=O)[C@H](CCCCN)NC(=O)[C@H](CCSC)NC(=O)[C@H](CCCNC(=N)N)NC(=O)[C@H](CC(C)C)NC(C)=O)C(=O)N[C@@H](C)C(=O)N[C@@H](Cc1ccc(O)cc1)C(=O)N[C@@H](CC(C)C)C(=O)N[C@@H](CCCCN)C(=O)N[C@@H](CCC(N)=O)C(=O)N[C@@H](C)C(=O)N[C@H](C(=O)N[C@@H](C)C(=O)N[C@@H](CCCCN)C(N)=O)[C@@H](C)O) [Hybrid 2, Ac-LRMK-ava-IAYLKQATAK-NH2]
3 | 0 thousands of cpm | 0 thousands of cpm | 0 thousands of cpm | 4 thousands of cpm | 0.4 thousands of cpm | 10.9 thousands of cpm | 29.5 thousands of cpm | 32.4 thousands of cpm | 27.8 thousands of cpm | 25.2 thousands of cpm | Ac-IAYLKQATAK-NH2 [Hybrid 1, Ac-IAYLKQATAK-NH2 (antigenic epitope PGCC 95-104 without Ii-Key)]
4 | 2.9 thousands of cpm | 2.4 thousands of cpm | 11.9 thousands of cpm | 28.7 thousands of cpm | 31.4 thousands of cpm | 39.2 thousands of cpm | 25.3 thousands of cpm | 26.9 thousands of cpm | 23.4 thousands of cpm | 21.5 thousands of cpm | Ac-LRMKLPKSAKPVSKIAYLKQATAK-NH2 [Hybrid 6, Ac-LRMKLPKSAKPVSKIAYLKQATAK-NH2]
5 | 0.6 thousands of cpm | 5.3 thousands of cpm | 21.6 thousands of cpm | 22.3 thousands of cpm | 27.9 thousands of cpm | 29.5 thousands of cpm | 26.2 thousands of cpm | 26.2 thousands of cpm | 31.7 thousands of cpm | 31.9 thousands of cpm | Ac-LRMK[Ava][Ava]IAYLKQATAK-NH2 (SMILES CC[C@H](C)[C@H](NC(=O)CCCCNC(=O)CCCCNC(=O)[C@H](CCCCN)NC(=O)[C@H](CCSC)NC(=O)[C@H](CCCNC(=N)N)NC(=O)[C@H](CC(C)C)NC(C)=O)C(=O)N[C@@H](C)C(=O)N[C@@H](Cc1ccc(O)cc1)C(=O)N[C@@H](CC(C)C)C(=O)N[C@@H](CCCCN)C(=O)N[C@@H](CCC(N)=O)C(=O)N[C@@H](C)C(=O)N[C@H](C(=O)N[C@@H](C)C(=O)N[C@@H](CCCCN)C(N)=O)[C@@H](C)O) [Hybrid 3, Ac-LRMK-ava-ava-IAYLKQATAK-NH2]
6 | 14.3 thousands of cpm | 21.3 thousands of cpm | 36.7 thousands of cpm | 30.1 thousands of cpm | 31.4 thousands of cpm | 44.6 thousands of cpm | 26.2 thousands of cpm | 29.1 thousands of cpm | 27.5 thousands of cpm | 27.3 thousands of cpm | Ac-LRMKLPKSAKPIAYLKQATAK-NH2 [Hybrid 5, Ac-LRMKLPKSAKPIAYLKQATAK-NH2]
